# B1: Cell division cycle and apoptosis regulator protein 1 (Homo sapiens), Q8IX12 (parent)
# chain: MAQFGGQKNPPWATQFTATAVSQPAALGVQQPSLLGASPTIYTQQTALAAAGLTTQTPANYQLTQTAALQQQAAAAAAALQQQYSQPQQALYSVQQQLQQPQQTLLTQPAVALPTSLSLSTPQPTAQITVSYPTPRSSQQQTQPQKQRVFTGVVTKLHDTFGFVDEDVFFQLSAVKGKTPQVGDRVLVEATYNPNMPFKWNAQRIQTLPNQNQSQTQPLLKTPPAVLQPIAPQTTFGVQTQPQPQSLLQAQISAASITPLLQTQPQPLLQQPQQKAGLLQPPVRIVSQPQPARRLDPPSRFSGRNDRGDQVPNRKDDRSRERERERRRSRERSPQRKRSRERSPRRERERSPRRVRRVVPRYTVQFSKFSLDCPSCDMMELRRRYQNLYIPSDFFDAQFTWVDAFPLSRPFQLGNYCNFYVMHREVESLEKNMAILDPPDADHLYSAKVMLMASPSMEDLYHKSCALAEDPQELRDGFQHPARLVKFLVGMKGKDEAMAIGGHWSPSLDGPDPEKDPSVLIKTAIRCCKALTGIDLSVCTQWYRFAEIRYHRPEETHKGRTVPAHVETVVLFFPDVWHCLPTRSEWETLSRGYKQQLVEKLQGERKEADGEQDEEEKDDGEAKEISTPTHWSKLDPKTMKVNDLRKELESRALSSKGLKSQLIARLTKQLKVEEQKEEQKELEKSEKEEDEDDDRKSEDDKEEEERKRQEEIERQRRERRYILPDEPAIIVHPNWAAKSGKFDCSIMSLSVLLDYRLEDNKEHSFEVSLFAELFNEMLQRDFGVRIYKSLLSLPEKEDKKEKDKKSKKDERKDKKEERDDETDEPKPKRRKSGDDKDKKEDRDERKKEDKRKDDSKDDDETEEDNNQDEYDPMEAEEAEDEEDDRDEEEMTKRDDKRDINRYCKERPSKDKEKEKTQMITINRDLLMAFVYFDQSHCGYLLEKDLEEILYTLGLHLSRAQVKKLLNKVVLRESCFYRKLTDTSKDEENHEESESLQEDMLGNRLLLPTPTVKQESKDVEENVGLIVYNGAMVDVGSLLQKLEKSEKVRAEVEQKLQLLEEKTDEDEKTILNLENSNKSLSGELREVKKDLSQLQENLKISENMNLQFENQMNKTIRNLSTVMDEIHTVLKKDNVKNEDKDQKSKENGASV
# Variants of: B1
# Conditions: with wwtr1_mouse Wwtr1, Q9EPK5
# wwtr1_mouse Wwtr1, Q9EPK5, sequence (Q9EPK5 whole entry): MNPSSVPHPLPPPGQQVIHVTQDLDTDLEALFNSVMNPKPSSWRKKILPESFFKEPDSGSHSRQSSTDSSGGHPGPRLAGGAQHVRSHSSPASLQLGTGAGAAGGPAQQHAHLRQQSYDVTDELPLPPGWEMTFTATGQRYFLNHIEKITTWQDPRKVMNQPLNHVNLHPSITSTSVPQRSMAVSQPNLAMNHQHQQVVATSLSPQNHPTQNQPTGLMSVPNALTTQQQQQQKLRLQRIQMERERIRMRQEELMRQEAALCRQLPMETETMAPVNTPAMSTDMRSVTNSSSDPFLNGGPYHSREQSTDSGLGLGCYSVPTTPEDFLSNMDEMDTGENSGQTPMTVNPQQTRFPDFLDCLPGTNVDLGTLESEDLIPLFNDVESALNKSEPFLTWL
row,effect of a mutation on the interaction,Variant
1,increasing interaction,T667D
2,decreasing interaction,T667A

# Reference: IntAct's records for PubMed 20594350
